Results published in publication PMC5036006.

What was measured:
Test in all cases: co-immunoprecipitation from transfected HEK293T
Conditions in all cases: reference: wild-type parafibromin; sites Y290,Y293,Y315
Gli1 = Gli1 (UniProt P08151)
[1] = target: Notch intracellular domain (NICD) intracellular domain, 1744-2183 (UniProt Q01705)
β-catenin = β-catenin (UniProt P35222)

Measured: binding against the reference

parafibromin (from UniProt Q6P1J9) PR-parafibromin Y290/293/315F
stronger: all assays above
